The record followed here is publication PMC2198872.

The assay addresses actin (filamentous actin from chicken pectoralis) (chicken) (UniProt P68139). Description: laser trap.

The substance “M5HMM(tag) with calmodulin (from UniProt Q99104 1-1098; P0DP23 1-149) (complex)” displayed a displacement duration (t on, time attached to actin) of 100 ms. As for “M5HMM containing only bound calmodulin (from UniProt Q99104 1-1098; P0DP23 1-149) (complex)”, the displacement duration (t on, time attached to actin) was 120 ms. Substance “baculovirus-expressed (-)insert isoform of smooth muscle myosin HMM (from UniProt P10587 1-1979) (complex)” registered a displacement duration, step 1 of double step events of 468 ms and a displacement duration, step 2 of double step events of 400 ms.
